# Results published in patent publication US20230012273A1 (Boehringer Ingelheim, published 2023).
# Changes are numbered by the printed parent chain.
# T1: cynomolgus SIRPγ extracellular domain + His-tag (XP_005568591) (cynomolgus monkey, UniProt Q9P1W8 29-359 (human entry))
# T1 construct: also called Cyno SIRPγ; cynoSIRPγ
# T1 chain: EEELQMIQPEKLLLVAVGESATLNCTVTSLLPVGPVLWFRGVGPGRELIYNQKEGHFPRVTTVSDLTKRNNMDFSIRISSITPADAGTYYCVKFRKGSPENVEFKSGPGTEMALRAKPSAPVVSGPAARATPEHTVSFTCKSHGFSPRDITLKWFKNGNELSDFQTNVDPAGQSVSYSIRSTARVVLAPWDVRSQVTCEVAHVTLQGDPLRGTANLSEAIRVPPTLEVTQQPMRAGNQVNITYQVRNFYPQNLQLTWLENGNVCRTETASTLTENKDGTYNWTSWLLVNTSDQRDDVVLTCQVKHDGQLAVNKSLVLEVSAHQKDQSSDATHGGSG
# T2: cynomolgus SIRPβ1v3 extracellular domain + His-tag (XP_005568593) (cynomolgus monkey)
# T2 construct: also called Cyno SIRPβ1v3; cynoSIRPβ1v3
# T2 chain: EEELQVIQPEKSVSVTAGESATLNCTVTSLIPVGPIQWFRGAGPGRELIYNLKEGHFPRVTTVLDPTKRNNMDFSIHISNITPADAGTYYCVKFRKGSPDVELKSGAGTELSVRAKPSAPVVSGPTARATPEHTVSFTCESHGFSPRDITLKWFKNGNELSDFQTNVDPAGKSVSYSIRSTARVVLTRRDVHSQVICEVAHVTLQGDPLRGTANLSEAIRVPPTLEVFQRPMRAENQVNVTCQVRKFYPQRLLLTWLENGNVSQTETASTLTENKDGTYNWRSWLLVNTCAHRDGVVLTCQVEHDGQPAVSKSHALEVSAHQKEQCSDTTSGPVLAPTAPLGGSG
# T3: cynomolgus SIRPβ1 extracellular domain + His-tag (XP_005568598) (cynomolgus monkey)
# T3 construct: also called Cyno SIRPβ1; cynoSIRPβ1
# T3 chain: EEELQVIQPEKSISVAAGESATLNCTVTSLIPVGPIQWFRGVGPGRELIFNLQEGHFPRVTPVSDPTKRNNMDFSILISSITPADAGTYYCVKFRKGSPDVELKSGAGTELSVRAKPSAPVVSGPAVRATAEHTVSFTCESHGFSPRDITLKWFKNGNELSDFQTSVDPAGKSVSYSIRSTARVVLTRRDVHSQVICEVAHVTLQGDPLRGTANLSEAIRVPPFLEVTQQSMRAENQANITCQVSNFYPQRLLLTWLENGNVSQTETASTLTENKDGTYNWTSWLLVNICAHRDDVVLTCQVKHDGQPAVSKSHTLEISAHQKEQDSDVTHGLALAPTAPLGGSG
# T4: cynomolgus SIRPα extracellular domain + His-tag (EGM_02252) (cynomolgus monkey)
# T4 construct: also called CySIRPα EGM_02252; cynoSIRPα
# T4 chain: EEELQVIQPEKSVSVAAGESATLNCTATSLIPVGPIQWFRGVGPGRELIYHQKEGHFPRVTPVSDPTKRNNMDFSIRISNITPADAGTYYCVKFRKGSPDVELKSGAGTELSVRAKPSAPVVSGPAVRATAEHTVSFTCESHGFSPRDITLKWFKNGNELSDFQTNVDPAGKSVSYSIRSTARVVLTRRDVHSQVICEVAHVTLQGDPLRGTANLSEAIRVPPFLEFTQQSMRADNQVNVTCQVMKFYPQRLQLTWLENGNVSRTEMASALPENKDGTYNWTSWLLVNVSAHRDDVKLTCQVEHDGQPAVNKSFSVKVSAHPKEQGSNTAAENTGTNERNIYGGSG
# T5: cynomolgus SIRPα extracellular domain + His-tag (XP_015313155) (cynomolgus monkey)
# T5 construct: also called CySIRPα XP_015313155; cynoSIRPα
# T5 chain: T4 chain with E19D, A27V, T28S, V42A, H51N, Q52L, F227V, M245T
# T6: cynoSIRPα (XP_015313155), Extracellular Domain + His-Tag (cynomolgus monkey)
# T6 construct: also called CySIRPα XP_015313155; not shown: His-Tag
# T6 chain: T4 chain with E19D, A27V, T28S, V42A, H51N, Q52L, F227V, M245T
# T7: cynoSIRPα (NP_001271679), Extracellular Domain + His-Tag (cynomolgus monkey)
# T7 construct: also called CySIRPα NP_001271679; not shown: His-Tag
# T7 chain: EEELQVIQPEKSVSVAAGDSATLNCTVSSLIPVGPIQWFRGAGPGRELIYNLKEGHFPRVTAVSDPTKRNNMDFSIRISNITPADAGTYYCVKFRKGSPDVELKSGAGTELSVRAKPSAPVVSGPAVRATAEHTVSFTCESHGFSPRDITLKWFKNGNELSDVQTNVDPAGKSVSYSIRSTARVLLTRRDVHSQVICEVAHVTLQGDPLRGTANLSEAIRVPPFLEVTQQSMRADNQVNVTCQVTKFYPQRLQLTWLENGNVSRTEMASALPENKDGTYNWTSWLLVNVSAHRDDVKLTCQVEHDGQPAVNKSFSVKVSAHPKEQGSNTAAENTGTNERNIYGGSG
# T8: cynoSIRPα (EGM_02252), Extracellular Domain + His-Tag (cynomolgus monkey)
# T8 construct: also called CySIRPα EGM_02252; not shown: His-Tag
# T8 chain: T4 chain
# B1: Antibody A1 (antibody, human IgG1, kappa, L234A L235A, V domains shown)
# VH: EVQLVESGGGLVQPGGSLRLSCAASGFTLSSYDMHWVRQAPGKGLEWVSAIGTAGDTYYTGSVKGRFTISRENAKNSLYLQMNSLRADDTAVYYCVRGGVWDDAFDIWGQGTMVTVSS
# VL: DIQMTQSPSSLSASVGDRVTITCRASQGINNYAAWFQQKPGKAPKSLIYTASSLHSGVPSKFSGSGSGTDFTLTISSLQPEDFATYYCQQYVSYPYTFGQGTKLEIKR
# notes: also called Antibody Al
# B2: Antibody A15 (antibody, human IgG1, kappa, L234A L235A, V domains shown)
# VH: B1 VH with D88E
# VL: B1 VL with G28D, A33L
# B3: Antibody A12 (antibody, human IgG1, kappa, L234A L235A, V domains shown)
# VH: B1 VH with P41T, D88S
# VL: B1 VL with G28D, A33L
# B4: Antibody A14 (antibody, human IgG1, kappa, L234A L235A, V domains shown)
# VH: B1 VH with D88S
# VL: B1 VL with G28D, A33L
# B5: Antibody A13 (antibody, human IgG1, kappa, L234A L235A, V domains shown)
# VH: B1 VH with D88A
# VL: B1 VL with G28D, A33L
# B6: Antibody A16 (antibody, human IgG1, kappa, L234A L235A, V domains shown)
# VH: B1 VH with D88G
# VL: B1 VL with G28D, A33L
# Molecular target: T1, cynomolgus SIRPγ extracellular domain + …
# Experiment: SPR, Ab captured, ECD-His analyte
# Procedure: (§1) The binding affinity of anti-SIRPα antibodies to the various SIRPα analytes is determined by surface plasmon resonance (SPR) using a ProteOn XPR36 (Bio-Rad). The running buffer for this experiment and all dilutions (except where stated) are done in 1×HBS-EP+. […] The sensorchip is deactivated with 1M ethanolamine HCl for 420 sec at a flowrate of 10 μl/min.
# (§2) The analyte is injected over the captured antibody for 300 sec at a flowrate of 30 μl/min. The dissociation is done for 600 sec. Two-fold serial dilutions of each SIRP protein (Extracellular Domain+His-Tag) are injected as analyte with the highest concentrations indicated in table 36 below.
row,Binder,binding result
1,B1,no binding (tested: 1000 nM)

# Molecular target: T2, cynomolgus SIRPβ1v3 extracellular …
# Experiment: SPR, Ab captured, ECD-His analyte
# Procedure: as §1, §2
row,Binder,Kd [nM]
1,B1,557

# Molecular target: T3, cynomolgus SIRPβ1 extracellular domain …
# Experiment: SPR, Ab captured, ECD-His analyte
# Procedure: as §1, §2
row,Binder,binding result
1,B1,no binding (tested: 1000 nM)

# Molecular target: T4, cynomolgus SIRPα extracellular domain + …
# Experiment: SPR, Ab captured, ECD-His analyte
# Procedure: as §1, §2
row,Binder,Kd [nM]
1,B1,543

# Molecular target: T5, cynomolgus SIRPα extracellular domain + …
# Experiment: SPR, Ab captured, ECD-His analyte
# Procedure: as §1, §2
row,Binder,Kd [nM]
1,B1,369

# Molecular target: T6, cynoSIRPα (XP_015313155), Extracellular …
# Experiment: SPR, antibody captured on Protein A/G, ECD-His analyte, steady-state fit
# Procedure: (§3) The binding kinetics of anti-SIRPα antibodies to various SIRPα analytes are determined by surface plasmon resonance (SPR) using a Biacore 8K+(Cytiva). 1×HBS-EP+(Cytiva) is used as running buffer and for all the dilutions unless stated otherwise. The Series S CM5 sensorchip is activated with a 1:1 mixture of 0.1 M NHS (N-hydroxysuccinimide) and 0.4 M EDC (1-Ethyl-3-(3-dimethylaminopropyl) carbodiimide hydrochloride) for 420 seconds at a flow rate of 10 μl/min and immobilized with Protein A/G (Thermo Scientific, 10 μg/ml in 10 mM acetate pH 4.5) for 420 seconds at a flowrate of 10 μl/min resulting in approximately 3000 RU of Protein A/G on the surface. The sensorchip is then deactivated with 1 M ethanolamine HCl pH 8.5 for 420 seconds at a flowrate of 10 μl/min.
# (§4) Antibodies (approximately 1 ug/ml) are captured on the Protein A/G surface for 60 seconds at a flowrate of 10 μl/min resulting in capture levels of approximately 240 RU. Dilutions of each SIRP protein (Extracellular Domain+His-Tag, with the concentrations as indicated) are injected as analytes over the captured antibody for 300 seconds of association at a flowrate of 30 μl/min, followed by a dissociation for 600 seconds.
# (§5) The above procedures are used to measure binding properties of antibodies of the present disclosure. For each analyte used, the highest concentration was as indicated in Example 3 (see Table 36).
row,Binder,Kd [nM]
1,B2,174
2,B3,195
3,B4,176
4,B5,177
5,B6,174

# Molecular target: T7, cynoSIRPα (NP_001271679), Extracellular …
# Experiment: as above
# Procedure: as §3, §4, §5
row,Binder,Kd [nM]
1,B2,317
2,B3,384
3,B4,316
4,B5,330
5,B6,306

# Molecular target: T8, cynoSIRPα (EGM_02252), Extracellular …
# Experiment: as above
# Procedure: as §3, §4, §5
row,Binder,Kd [nM]
1,B2,224
2,B3,247
3,B4,222
4,B5,223
5,B6,224

# Molecular target: T9, human SIRPβL/SIRPβ1v3 extracellular domain + His-tag (NP_001129316.1) (human, UniProt Q5TFQ8 30-371)
# T9 construct: also called hSIRPβ1v3; HuSIRPβ1v3
# T9 sequence (Q5TFQ8 other isoform, or with tags, fused parts or gaps): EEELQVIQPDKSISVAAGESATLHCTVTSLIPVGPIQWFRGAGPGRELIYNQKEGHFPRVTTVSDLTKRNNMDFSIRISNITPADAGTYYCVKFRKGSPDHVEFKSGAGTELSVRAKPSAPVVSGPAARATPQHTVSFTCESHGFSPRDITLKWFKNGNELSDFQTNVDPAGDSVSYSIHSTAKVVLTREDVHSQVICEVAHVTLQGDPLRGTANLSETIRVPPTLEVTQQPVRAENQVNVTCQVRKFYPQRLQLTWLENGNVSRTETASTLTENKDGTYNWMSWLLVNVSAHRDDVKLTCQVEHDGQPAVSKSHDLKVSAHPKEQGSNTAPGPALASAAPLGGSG
# Experiment: SPR, Ab captured, ECD-His analyte
# Procedure: as §1, §2
row,Binder,binding result
1,B1,no binding (tested: 100 nM)

# Molecular target: T10, human SIRPγ extracellular domain + His-tag (NP_061026.2) (human, UniProt Q9P1W8 29-360)
# T10 construct: also called hSIRPγ; HuSIRPγ
# T10 sequence (Q9P1W8 29-360): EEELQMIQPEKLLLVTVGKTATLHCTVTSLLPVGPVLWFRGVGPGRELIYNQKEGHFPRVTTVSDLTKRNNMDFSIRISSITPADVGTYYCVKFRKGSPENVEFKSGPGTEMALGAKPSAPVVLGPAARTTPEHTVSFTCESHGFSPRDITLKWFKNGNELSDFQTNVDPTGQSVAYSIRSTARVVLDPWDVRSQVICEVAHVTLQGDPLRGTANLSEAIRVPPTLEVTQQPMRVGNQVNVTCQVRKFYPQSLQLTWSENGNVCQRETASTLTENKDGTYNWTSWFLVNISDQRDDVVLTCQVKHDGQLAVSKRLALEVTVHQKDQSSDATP
# Experiment: SPR, Ab captured, ECD-His analyte
# Procedure: as §1, §2
row,Binder,binding result
1,B1,no binding (tested: 1000 nM)

# Molecular target: T11, human SIRPβ1 extracellular domain + His-tag (NP_006056.2) (human, UniProt O00241 30-371)
# T11 construct: also called hSIRPβ1; HuSIRPβ1
# T11 sequence (O00241 other isoform, or with tags, fused parts or gaps): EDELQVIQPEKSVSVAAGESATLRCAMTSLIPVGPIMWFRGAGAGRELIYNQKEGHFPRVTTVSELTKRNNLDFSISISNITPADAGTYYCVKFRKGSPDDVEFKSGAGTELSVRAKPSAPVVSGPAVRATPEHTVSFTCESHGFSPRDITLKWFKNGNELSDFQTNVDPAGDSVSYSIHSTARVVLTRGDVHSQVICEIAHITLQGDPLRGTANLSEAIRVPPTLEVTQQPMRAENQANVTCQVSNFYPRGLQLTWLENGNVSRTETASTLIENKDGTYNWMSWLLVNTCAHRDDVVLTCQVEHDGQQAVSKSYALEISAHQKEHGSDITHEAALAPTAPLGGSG
# Experiment: SPR, Ab captured, ECD-His analyte
# Procedure: as §1, §2
row,Binder,binding result
1,B1,no binding (tested: 1000 nM)

# Molecular target: T12, Human SIRPαV2 (CAA71403.1), Extracellular Domain + His-Tag (human, UniProt P78324 31-373)
# T12 construct: also called huSIRPαV2; hSIRPαV2; not shown: His-Tag
# T12 sequence (P78324 other isoform, or with tags, fused parts or gaps): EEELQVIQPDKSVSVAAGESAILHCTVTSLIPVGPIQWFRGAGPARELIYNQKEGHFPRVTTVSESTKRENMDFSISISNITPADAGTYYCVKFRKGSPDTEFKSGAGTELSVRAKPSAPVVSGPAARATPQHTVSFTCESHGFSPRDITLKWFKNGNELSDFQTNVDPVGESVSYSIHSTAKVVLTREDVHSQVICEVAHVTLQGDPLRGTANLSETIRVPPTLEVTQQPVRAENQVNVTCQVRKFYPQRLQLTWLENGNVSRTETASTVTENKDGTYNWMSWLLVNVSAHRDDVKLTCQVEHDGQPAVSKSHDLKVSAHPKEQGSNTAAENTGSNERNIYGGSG
# Experiment: SPR, antibody captured on Protein A/G, ECD-His analyte, 1:1 fit
# Method in brief: (§6)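 Biacore 8K+ at HBS-EP+, with antibodies (~1 ug/ml) captured on Protein A/G CM5 surface to ~240 RU. SIRPα ECD-His analyte dilutions injected at 30 μl/min for 300 s association, 600 s dissociation.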
Binder,Kd [nM],koff [s⁻¹],kon [M⁻¹ s⁻¹]
B2,7.91,0.00671,848000
B3,8.96,0.00689,769000
B4,7.95,0.00648,816000
B5,8.36,0.00635,760000
B6,8.22,0.0063,766000

# Molecular target: T13, Human SIRPαV1 (NP_542970.1), Extracellular Domain + His-Tag (human, UniProt P78324 31-373)
# T13 construct: also called huSIRPαV1; hSIRPαV1; not shown: His-Tag
# T13 sequence (P78324 other isoform, or with tags, fused parts or gaps): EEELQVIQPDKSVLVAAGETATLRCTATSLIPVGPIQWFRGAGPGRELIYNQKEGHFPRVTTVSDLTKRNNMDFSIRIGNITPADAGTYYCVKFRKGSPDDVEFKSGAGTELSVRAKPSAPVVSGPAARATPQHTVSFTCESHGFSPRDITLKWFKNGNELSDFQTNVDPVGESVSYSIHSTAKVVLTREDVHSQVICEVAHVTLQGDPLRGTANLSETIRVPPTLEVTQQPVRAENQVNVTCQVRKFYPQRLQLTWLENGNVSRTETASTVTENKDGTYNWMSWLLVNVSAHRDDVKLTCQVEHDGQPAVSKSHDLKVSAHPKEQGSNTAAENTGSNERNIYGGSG
# Experiment: as above
# Method in brief: as §6
Binder,Kd [nM],koff [s⁻¹],kon [M⁻¹ s⁻¹]
B2,7.06,0.00371,526000
B3,7.83,0.00378,482000
B4,8.13,0.00397,488000
B5,7.28,0.00352,484000
B6,7.98,0.00377,472000
